Like-named read-outs stand apart in the source and are kept apart here.
What was measured:
EpCAM on DLD-1 cells [1] = target: T1, EpCAM on DLD-1 cells (human, UniProt P16422 24-314); assay: cell-based or functional assay
T1 sequence (looked up): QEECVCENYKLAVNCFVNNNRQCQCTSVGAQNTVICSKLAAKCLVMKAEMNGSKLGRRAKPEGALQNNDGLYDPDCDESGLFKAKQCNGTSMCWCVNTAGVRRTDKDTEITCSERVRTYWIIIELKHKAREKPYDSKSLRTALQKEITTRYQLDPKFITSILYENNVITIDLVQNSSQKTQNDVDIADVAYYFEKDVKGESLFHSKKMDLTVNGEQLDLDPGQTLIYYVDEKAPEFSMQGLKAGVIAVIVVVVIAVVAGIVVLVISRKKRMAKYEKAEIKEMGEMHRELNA

EpCAM on DLD-1 cells [2] = target: T1, EpCAM on DLD-1 cells; assay: flow cytometry on DLD-1 cells (EPCAM+), anti-human IgG PE
[3] = target: T2, Human CLEC5A His Tag protein (ACROBiosystems, Cat #: CLA-H5243) (human, UniProt Q9NY25 28-188, limits assumed); assay: ELISA, plate coated with human CLEC5A
T2 construct: Bought protein with a His tag; also called recombinant human CLEC5A protein
T2 sequence: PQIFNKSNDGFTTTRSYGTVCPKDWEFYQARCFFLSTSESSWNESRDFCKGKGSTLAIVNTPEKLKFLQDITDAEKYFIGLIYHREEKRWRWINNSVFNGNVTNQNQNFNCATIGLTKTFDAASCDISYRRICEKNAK

[4] = target: T3, Human C-type lectin domain family 5 member A (CLEC5A), endogenous on human monocytes and M0 macrophages (human, UniProt Q9NY25 1-188); assay: flow cytometry on human M0 macrophages, anti-human IgG PE
T3 construct: Endogenous CLEC5A on primary human monocytes and monocyte-derived M0 macrophages; also called MDL-1; M0 macrophages (CLEC5A+) cells
T3 sequence: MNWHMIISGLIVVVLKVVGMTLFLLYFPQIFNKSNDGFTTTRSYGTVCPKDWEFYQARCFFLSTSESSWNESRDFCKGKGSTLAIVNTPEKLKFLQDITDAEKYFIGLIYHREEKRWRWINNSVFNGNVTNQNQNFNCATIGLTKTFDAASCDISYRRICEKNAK

HER2 on SK-BR-3 cells [5] = target: T4, HER2 on SK-BR-3 cells (UniProt P04626 23-1255, limits assumed); assay: cell-based or functional assay
[6] = target: T3, Human C-type lectin domain family 5 …; assay: flow cytometry on human M0 macrophages, anti-human IgG PE; remark: listed apart in the source
HER2 on SK-BR-3 cells [7] = target: T4, HER2 on SK-BR-3 cells; assay: cell-based or functional assay; remark: listed apart in the source
[8] = target: T5, human EGFR (ACROBiosystems, Cat #: EGR-H5222) (human, UniProt P00533 25-645); assay: ELISA, plate coated with human EGFR
T5 construct: Bought protein; also called recombinant human EGFR protein

[9] = target: T6, CD79b on Ramos cells and on endogenous B cells of human PBMCs (human, UniProt P40259 29-229); assay: cell-based or functional assay
T6 sequence (looked up): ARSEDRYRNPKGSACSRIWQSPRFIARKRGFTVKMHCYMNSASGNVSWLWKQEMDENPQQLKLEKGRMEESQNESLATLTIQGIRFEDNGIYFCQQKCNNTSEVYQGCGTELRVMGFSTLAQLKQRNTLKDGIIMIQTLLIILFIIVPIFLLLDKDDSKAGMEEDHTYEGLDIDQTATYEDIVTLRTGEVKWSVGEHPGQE

[10] = target: T6, CD79b on Ramos cells and on endogenous …; assay: cell-based or functional assay; remark: listed apart in the source
[11] = target: T6, CD79b on Ramos cells and on endogenous …; assay: cell-based or functional assay; remark: listed apart in the source
[12] = target: T6, CD79b on Ramos cells and on endogenous …; assay: flow cytometry on Ramos cells (CD79b+), anti-human IgG PE, MFI (PE)
[13] = target: T6, CD79b on Ramos cells and on endogenous …; assay: cell-based or functional assay; remark: listed apart in the source
[14] = target: T6, CD79b on Ramos cells and on endogenous …; assay: cell-based or functional assay; remark: listed apart in the source
[15] = target: T6, CD79b on Ramos cells and on endogenous …; assay: cell-based or functional assay; remark: listed apart in the source

B1: EpCAM/5C7 (2+2 A) Fc-optimized (bispecific antibody, human IgG1, kappa)
heavy: QVQLQQSGAELVRPGTSVKVSCKASGYAFTNYLIEWVKQRPGQGLEWIGVINPGSGGTNYNEKFKGKATLTADKSSSTAYMQLSSLTSDDSAVYFCARDGPWFAYWGQGTLVTVSAASTKGPSVFPLAPSSKSTSGGTAALGCLVKDYFPEPVTVSWNSGALTSGVHTFPAVLQSSGLYSLSSVVTVPSSSLGTQTYICNVNHKPSNTKVDKKVEPKSCDKTHTCPPCPAPELLAGPSVFLFPPKPKDTLMISRTPEVTCVVVDVSHEDPEVKFNWYVDGVEVHNAKTKPREEQYNSTYRVVSVLTVLHQDWLNGKEYKCKVSNKALPLPEEKTISKAKGQPREPQVYTLPPSRDELTKNQVSLTCLVKGFYPSDIAVEWESNGQPENNYKTTPPVLDSDGSFFLYSKLTVDKSRWQQGNVFSCSVMHEALHNHYTQKSLSLSPGK
light: NIVMTQSPKSMSMSVGERVTLTCKASENVVTYVSWYQQKPEQSPKLLIYGASNRYTGVPDRFTGSGSATDFTLTISSVQAEDLADYHCGQGYSYPYTFGGGTKLEIKRTVAAPSVFIFPPSDEQLKSGTASVVCLLNNFYPREAKVQWKVDNALQSGNSQESVTEQDSKDSTYSLSSTLTLSKADYEKHKVYACEVTHQGLSSPVTKSFNRGECGGGGSGGGGSGGGGSAIVMTQTPSSKSVPVGDTVTINCQASESVDRNNRLAWFQQKPGQPPKLLIYTTSTLASGVPSRFKGSGSGTHFTLTISDVVPDDAATYYCAGYRGAHTDGDAFGCGTEVVVKGGGGSGGGGSGGGGSGGGGSQSLEESGGDLVKPGASLTLTCTASGFSFSRSSYMCWVRQAPGKCLEWIGCLSVGDGHTYYASWAKGRFTISKTSSTSVTLQMTRLTAADTATYFCARAPSYSGDGGHGYDLWGPGTLVTVSS
notes: also called EpCAM/CLEC5A (2+2 A) Fc-optimized antibody; EpCAM/CLEC5A bispecific antibody
With B1 as the binder, how does the “IC50 (nM), DLD-1 cell killing by M0 macrophages” value (EpCAM on DLD-1 cells [1]) read?
The value was 0.0035 nM.

What about the EC50 (EpCAM on DLD-1 cells [2]) of the same binder?
Its EC50 is 1.1 nM.

And the EC50 [3]?
Its EC50 is 0.064 µg/mL.

What about the EC50 [4] of the same binder?
The EC50 was 7.35 nM.

B2: HER2/5C7 (1+1 A) Fc-silenced (bispecific antibody, human IgG1, kappa, L234A L235A)
heavy 1: not shown
heavy 2: not shown
light 1: not shown
light 2: AIVMTQTPSSKSVPVGDTVTINCQASESVDRNNRLAWFQQKPGQPPKLLIYTTSTLASGVPSRFKGSGSGTHFTLTISDVVPDDAATYYCAGYRGAHTDGDAFGGGTEVVVKSSASTKGPSVFPLAPSSKSTSGGTAALGCLVKDYFPEPVTVSWNSGALTSGVHTFPAVLQSSGLYSLSSVVTVPSSSLGTQTYICNVNHKPSNTKVDKKVEPKSC
notes: also called HER2/5C7 (1+1 A) Fc-LALAPG
Which results are given for B2?
IC50 (nM), SK-BR-3 cell killing by M0 macrophages in the presence of hIgG1 (HER2 on SK-BR-3 cells [5]): 0.00632 nM; IC50 (nM), SK-BR-3 cell killing by M0 macrophages in the presence of media (HER2 on SK-BR-3 cells [5]): 0.0481 nM; IC50 (nM), SK-BR-3 cell killing by M0 macrophages in the presence of plasma (HER2 on SK-BR-3 cells [5]): 0.433 nM; EC50 [6]: 1.49 nM; IC50 (nM), SK-BR-3 cell killing by M0 macrophages (E:T 5:1) (HER2 on SK-BR-3 cells [7]): 0.148 nM

B3: Necitumumab (antibody, V domains shown)
VH: QVQLQESGPGLVKPSQTLSLTCTVSGGSISSGDYYWSWIRQPPGKGLEWIGYIYYSGSTDYNPSLKSRVTMSVDTSKNQFSLKVNSVTAADTAVYYCARVSIFGVGTFDYWGQGTLVTVSS
VL: EIVMTQSPATLSLSPGERATLSCRASQSVSSYLAWYQQKPGQAPRLLIYDASNRATGIPARFSGSGSGTDFTLTISSLEPEDFAVYYCHQYGSTPLTFGGGTKAEIK
B3 was tested. Which EC50 [8] did it give?
The EC50 was 0.022 µg/mL.

B4: anti-EpCAM antibody (Solitomab EpCAM binding part IgG form) (antibody, V domains shown)
VH: QVQLQQSGAELVRPGTSVKVSCKASGYAFTNYLIEWVKQRPGQGLEWIGVINPGSGGTNYNEKFKGKATLTADKSSSTAYMQLSSLTSDDSAVYFCARDGPWFAYWGQGTLVTVSA
VL: NIVMTQSPKSMSMSVGERVTLTCKASENVVTYVSWYQQKPEQSPKLLIYGASNRYTGVPDRFTGSGSATDFTLTISSVQAEDLADYHCGQGYSYPYTFGGGTKLEIK
notes: IgG form
How did the “IC50 (nM), DLD-1 cell killing by M0 macrophages” value (EpCAM on DLD-1 cells [1]) turn out when B4 was run?
Its value is 0.0812 nM.

What about the EC50 (EpCAM on DLD-1 cells [2]) of the same binder?
The EC50 was 0.67 nM.

B5: CD79b/5C7 (2+2 B) Fc-optimized (bispecific antibody, human IgG1, kappa)
heavy: EQQLVETGGGLIQPGGSLRLSCAASGFTINIDYWISWVRQAPGKGLEWIGIIDPGDGTTYFAIWVSGRFTISFDNSKNTVYLQMNSLRAEDTAVYFCVREFSASAYQYDLWGPGTLVTVSSASTKGPSVFPLAPSSKSTSGGTAALGCLVKDYFPEPVTVSWNSGALTSGVHTFPAVLQSSGLYSLSSVVTVPSSSLGTQTYICNVNHKPSNTKVDKKVEPKSCDKTHTCPPCPAPELLAGPSVFLFPPKPKDTLMISRTPEVTCVVVDVSHEDPEVKFNWYVDGVEVHNAKTKPREEQYNSTYRVVSVLTVLHQDWLNGKEYKCKVSNKALPLPEEKTISKAKGQPREPQVYTLPPSRDELTKNQVSLTCLVKGFYPSDIAVEWESNGQPENNYKTTPPVLDSDGSFFLYSKLTVDKSRWQQGNVFSCSVMHEALHNHYTQKSLSLSPGGGGGSGGGGSGGGGSDIQMTQSPSSLSASVGDRVTITCQASESVDRNNRLAWFQQKPGKPPKLLIYTTSTLASGVPSRFSGSGSGTDFTLTISSLQPEDVATYYCAGYRGAHTDGDAFGCGTKVEIKGGGGSGGGGSGGGGSGGGGSEQQLVESGGGLVKPGGSLRLSCAASGFSFSRSSYMCWVRQAPGKCLEWIGCLSVGDGHTYYASWAKGRFTISKDSAKNSVYLQMNSLRAEDTAVYFCARAPSYSGDGGHGYDLWGPGTLVTVSS
light: ELVMTQSPATLSVSPGERATLSCRASEDIENYLAWYQQKPGQPPRLLIYRASTLSSGVPARFSGSGSGTEFTLTISSLQSEDFAVYYCQQGYRNSNVDNPFGGGTKVEIKRTVAAPSVFIFPPSDEQLKSGTASVVCLLNNFYPREAKVQWKVDNALQSGNSQESVTEQDSKDSTYSLSSTLTLSKADYEKHKVYACEVTHQGLSSPVTKSFNRGEC
B5 was tested. Which “IC50 (nM), Ramos cell killing by PBMCs (test 2), Donor 234” value [9] did it give?
Its value is 0.0298 nM.

And the “IC50 (nM), Ramos cell killing by PBMCs (test 2), Donor 431” value [9]?
Its value is 0.0168 nM.

What about the “IC50 (nM), Ramos cell killing by M2 macrophages, Donor 022” value [10] of the same binder?
The value was 0.006 nM.

What about the “IC50 (nM), Ramos cell killing by M2 macrophages, Donor 431” value [10] of the same binder?
The value was 0.001 nM.

And the “IC50 (nM), Ramos cell killing by M1 macrophages, Donor 431” value [11]?
Its value is 0.002 nM.

And the “EC50 (read off the curve)” value [12]?
The value was ~1 nM.

What about the “IC50 (nM), Ramos cell killing by M0 macrophages, Donor 022” value [13] of the same binder?
The value was 0.012 nM.

What about the “IC50 (nM), Ramos cell killing by M0 macrophages, Donor 159” value [13] of the same binder?
The value was 0.001 nM.

And the “IC50 (nM), Ramos cell killing by M0 macrophages, Donor 161” value [13]?
The value was 0.001 nM.

And the “IC50 (nM), Ramos cell killing by M0 macrophages, Donor 431” value [13]?
Its value is 0.002 nM.

And the “IC50 (nM), Ramos cell killing by PBMCs (test 3), Donor 281” value [14]?
The value was 0.28 nM.

What about the “IC50 (nM), Ramos cell killing by PBMCs (test 3), Donor 367” value [14] of the same binder?
Its value is 0.0295 nM.

And the “IC50 (nM), killing of endogenous B cells by PBMCs, Donor 234” value [15]?
Its value is 0.0156 nM.

B6: HER2/3A7 (1+1 A) Fc-silenced (bispecific antibody, human IgG1, kappa, L234A L235A)
heavy 1: not shown
heavy 2: not shown
light 1: not shown
light 2: AVVMTQTPASVEAAVGGTVTINCQASQRINNYLSWFQQKPGQPPKLLIYGAATLASGVPSRFKGSGSGTEYTLTISDLEPADAATYYCQCTYGIPSSNYGFGGGTEVVVKSSASTKGPSVFPLAPSSKSTSGGTAALGCLVKDYFPEPVTVSWNSGALTSGVHTFPAVLQSSGLYSLSSVVTVPSSSLGTQTYICNVNHKPSNTKVDKKVEPKSC
notes: also called HER2/3A7 (1+1 A) Fc-LALAPG
How did the EC50 [6] turn out when B6 was run?
The EC50 was 0.611 nM.

And the “IC50 (nM), SK-BR-3 cell killing by M0 macrophages (E:T 5:1)” value (HER2 on SK-BR-3 cells [7])?
Its value is 0.114 nM.
